Source: publication PMC6802635

Molecular target: NRLLLTG peptide
Assay: ELISA; 150 ng NRLLLTG peptide coated on the plate in 0.05 M sodium carbonate pH 9.6; HSP70 protein added in a dose-dependent manner; detected with anti-HSP70 antibody, TMB, 450 nm

## purified HSP70 S385D/S400D double phospho-mimetic mutant (from UniProt P0DMV8 1-641) (natural protein)
  fold affinity relative to WT HSP70: 1.5 fold
